In US7211424B1, “Mammalian Subtilisin/kexin isozyme SKI-1: a proprotein convertase with a unique cleavage specificity” (Institut de Recherches Cliniques de Montreal, priority 1999, dated 2007):

How the values were obtained:
[1] = target: T1, peptide (iv) hSKI-1 (181-188+Glu)
T1 chain: SSRRLLRAIE

[2] = target: T2, peptide (x) SREBP-2 10 mer
T2 chain: SGSGRSVLSFES

[3] = target: T3, peptide I, hproBDNF(50-63)
T3 chain: KAGSRGLTSLADTF

[4] = target: T4, peptide II, hSREBP-2(504-530)
T4 chain: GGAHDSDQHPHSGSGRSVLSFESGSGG

[5] = target: T5, peptide III, hSKI-1(174-191)
T5 chain: WHATGRHSSRRLLRAIPR

[6] = target: T6, peptide IV, hSKI-1 (174-188+LE)
T6 chain: WHATGRHSSRRLLRALE

[7] = target: T7, peptide IX, hSKI-1 (128-142)
T7 chain: PQRKVFRSLKYAESD

[8] = target: T8, peptide VI, hSKI-1 (156-172)
T8 chain: WQSSRPLRRASLSLGSG

[9] = target: T9, peptide VII, hSKI-1 (187-201)
T9 chain: RAIPRQVAQTLQADV

[10] = target: T10, peptide VIII, hSKI-1 (128-136)
T10 chain: PQRKVFRSL

[11] = target: T11, peptide X, Q-hSKI-1 (132-142): Abz-VFRSLKYAESD-Y(NO2)-A
T11 chain: XVFRSLKYAESDXA

[12] = target: T12, peptide XI, Q-hSKI-1 (134-142): Abz-RSLKYAESD-Y(NO2)-A
T12 chain: XRSLKYAESDXA

[13] = substrate: CC(C)C[C@H](NC(=O)[C@H](CO)NC(=O)[C@H](CCCNC(=N)N)NC(=O)[C@H](Cc1ccccc1)NC(=O)[C@@H](NC(=O)c1ccccc1N)C(C)C)C(=O)N[C@@H](CCCCN)C(=O)N[C@@H](Cc1ccc(O)cc1)C(=O)N[C@@H](C)C(=O)N[C@@H](CCC(=O)O)C(=O)N[C@@H](CO)C(=O)N[C@@H](CC(=O)O)C(=O)N[C@@H](Cc1ccc(O)c([N+](=O)[O-])c1)C(=O)N[C@@H](C)C(N)=O; test: Hydrolysis of quenched fluorogenic substrates by shed-hSKI-1; assay type: biochemical, human; details: other: shed-hSKI-1; averages of duplicate assays; pH 6.5; 37.0 °C
Procedure: (§1) For digestions, each peptide was typically reacted at 37° C. with 10 μl of the concentrated enzyme preparation in a buffer consisting of 50 mM HEPES (N-2-Hydroxyethyl piperazine-N′-2 EthaneSulfonic acid) (ICN Biomedicals Inc), 50 mM MES (2-[N-Morpholino] EthaneSulfonic acid) (Sigma Chem Co.), and 3 mM Ca^2+-acetate (pH 6.5). The digestion products were separated by RP-HPLC on a Beckman 5 μm Ultrasphere C18 column (0.2×25 cm) and eluted with a 1%/min linear gradient of aqueous 0.1% TFA/CH3CN ([…]) at a flow rate of 1 ml/min. The collected peptides were characterized by mass spectrometry and amino acid composition, which was also used to quantitate the amount of various substrates and products. The digestions of the quenched fluorogenic peptides were analyzed by RP-HPLC using a dual UV (210 nm) and fluorescence (excitation and emission wavelengths of 320 and 420 nm, respectively) detector (Rainin).
(§2) Km(app), Vmax(app) and Ki(app) determinations—Following digestion reactions with increasing substrate concentrations, the products were separated by RP-HPLC. The rate of substrate hydrolysis was obtained from the integrated peak areas of the chromatograms. Km(app) and Vmax(app) values were estimated using nonlinear regression analysis (Enzfitter software; Elsevier Biosoft, Cambridge, UK) of plots of the hydrolysis rate vs the substrate concentration. […] The Ki(app) values were estimated from Dixon plots as described (16). For the two quenched peptides, kinetic parameters were determined as described (17).

[14] = substrate: CC(C)C[C@H](NC(=O)[C@H](CO)NC(=O)[C@H](CCCNC(=N)N)NC(=O)c1ccccc1N)C(=O)N[C@@H](CCCCN)C(=O)N[C@@H](Cc1ccc(O)cc1)C(=O)N[C@@H](C)C(=O)N[C@@H](CCC(=O)O)C(=O)N[C@@H](CO)C(=O)N[C@@H](CC(=O)O)C(=O)N[C@@H](Cc1ccc(O)c([N+](=O)[O-])c1)C(=O)N[C@@H](C)C(N)=O; test: as above; assay type: biochemical, human; details: other: shed-hSKI-1; averages of duplicate assays; pH 6.5; 37.0 °C
Procedure: as §1, §2

B1: shed-hSKI-1 (Homo sapiens) (protein)
chain: RAIPRQVAQTLQADVLWQMGYTGANVRVAVFDTGLSEKHPHFKNVKERTNWTNERTLDDGLGHGTFVAGVIASMRECQGFAPDAELHIFRVFTNNQVSYTSWFLDAFNYAILKKIDVLNLSIGGPDFMDHPFVDKVWELTANNVIMVSAIGNDGPLYGTLNNPADQMDVIGVGGIDFEDNIARFSSRGMTTWELPGGYGRMKPDIVTYGAGVRGSGVKGGCRALSGTSVASPVVAGAVTLLVSTVQKRELVNPASMKQALIASARRLPGVNMFEQGHGKLDLLRAYQILNSYKPQASLSPSYIDLTECPYMWPYCSQPIYYGGMPTVVNVTILNGMGVTGRIVDKPDWQPYLPQNGDNIEVAFSYSSVLWPWSGYLAISISVTKKAASWEGIAQGHVMITVASPAETESKNGAEQTSTVKLPIKVKIIPTPPRSKRVLWDQYHNLRYPPGYFPRDNLRMKNDPLDWNGDHIHTNFRDMYQHLRSMGYFVEVLGAPFTCFDASQYGTLLMVDSEEEYFPEEIAKLRRDVDNGLSLVIFSDWYNTSVMRKVKFYDENTRQWWMPDTGGANIPALNELLSVWNMGFSDGLYEGEFTLANHDMYYASGCSIAKFPEDGVVITQTFKDQGLEVLKQETAVVENVPILGLYQIPAEGGGRIVLYGDSNCLDDSHRQKDCFWLLDALLQYTSYGVTPPSLSHSGNRQRPPSGAGSVTPERMEGNHLHRYSKVLEAHLGDPKPRPLPACPRLSWAKPQPLNETAPSNLWKHQKLLSIDLDKVVLPNFRSNRPQVRPLSPGESGAWDIPGGIMPGRYNQEV
notes: SKI-1 is further processed to remove the transmembrane domain that keeps it integrated in the ER membrane, which generates a SKI-1 soluble form; made in house; host or cells: HK293 cells stably transfected with full-length hSKI-1 in pcDNA3; shed enzyme in the medium
cleavage of synthetic peptide (iv): efficiently cleaved [1]: only the peptides (iii), (iv), (vii), (viii) (ix) and (x) are efficiently cleaved by the recombinant SKI-1 | cleavage of synthetic peptide (x): efficiently cleaved [2]: only the peptides (iii), (iv), (vii), (viii) (ix) and (x) are efficiently cleaved by the recombinant SKI-1 | cleavage of synthetic peptide (viii): efficiently cleaved [3]: only the peptides (iii), (iv), (vii), (viii) (ix) and (x) are efficiently cleaved by the recombinant SKI-1 | cleavage of synthetic peptide (ix): efficiently cleaved [4]: only the peptides (iii), (iv), (vii), (viii) (ix) and (x) are efficiently cleaved by the recombinant SKI-1 | cleavage of synthetic peptide (ii): not efficiently cleaved [5]: only the peptides (iii), (iv), (vii), (viii) (ix) and (x) are efficiently cleaved by the recombinant SKI-1 | cleavage of synthetic peptide (iii): efficiently cleaved [6]: only the peptides (iii), (iv), (vii), (viii) (ix) and (x) are efficiently cleaved by the recombinant SKI-1 | cleavage of synthetic peptide (vii): efficiently cleaved [7]: only the peptides (iii), (iv), (vii), (viii) (ix) and (x) are efficiently cleaved by the recombinant SKI-1 | cleavage of synthetic peptide (i): not efficiently cleaved [8]: only the peptides (iii), (iv), (vii), (viii) (ix) and (x) are efficiently cleaved by the recombinant SKI-1 | cleavage of synthetic peptide (v): not efficiently cleaved [9]: only the peptides (iii), (iv), (vii), (viii) (ix) and (x) are efficiently cleaved by the recombinant SKI-1 | cleavage of synthetic peptide (vi): not efficiently cleaved [10]: only the peptides (iii), (iv), (vii), (viii) (ix) and (x) are efficiently cleaved by the recombinant SKI-1 | kinetic parameters (Vmax/Km) relative to quenched peptide (b) [11]: this peptide is 6-fold more efficient that the nearest candidate quenched peptide (b) | cleavage of quenched fluorogenic peptide (HPLC with UV and fluorescence detection) [12]: clearly revealed a single site of cleavage in peptides (a) and (b) | Km [13]: 31.3 µM | Vmax [13]: 0.567 µmol/min | Km [14]: 8.7 µM | Vmax [14]: 0.948 µmol/min
